According to paper PMC8058060, “The transcriptional activator of the bfp operon in EPEC (PerA) interacts with the RNA polymerase alpha subunit” (Scientific Reports, 2021):

Biological target: T1, His6-RpoA (alpha subunit of the RNA polymerase) (UniProt P0A7Z4 1-329)
T1 construct: RNA polymerase alpha subunit RpoA; also called His-tagged RpoA; α-subunit of the RNAP; source: E. coli BL21 (DE3) containing pET28-RpoA, purified as described previously
Test: pull-down; 50 µg each of purified MBP or MBP-PerA and His6-RpoA in interaction buffer (2X: 100 mM NaH2PO4, 600 mM NaCl, 40 mM imidazol, 0.5% NP-40, 20% glycerol, pH 8.0), 30 min on ice, then 50 µl amylose resin 2 h at ~4 °C; Western blot with anti-MBP antibody or anti-His6-HRP probe
Conditions: both partners purified

T1 sequence (P0A7Z4 whole entry): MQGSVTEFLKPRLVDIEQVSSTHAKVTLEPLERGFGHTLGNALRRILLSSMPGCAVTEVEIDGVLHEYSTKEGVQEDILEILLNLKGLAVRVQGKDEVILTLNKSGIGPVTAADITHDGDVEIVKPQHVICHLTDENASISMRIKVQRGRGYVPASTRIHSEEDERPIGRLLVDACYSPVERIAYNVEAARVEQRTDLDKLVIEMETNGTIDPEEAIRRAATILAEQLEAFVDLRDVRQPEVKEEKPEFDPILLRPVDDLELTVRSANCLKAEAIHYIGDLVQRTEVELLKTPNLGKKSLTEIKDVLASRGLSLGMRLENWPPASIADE

B1: MBP-PerA fusion (natural protein)
chain: MLTSKKEMQSSENKQEENLALLLTNYISYQNIVIFTGGNQFKIRNKKEFTEYTIESNSLFFLAKNTHWDMEIVGIDNSNPYRKIIIDDALIKLLHSISSDDSCYVKKKIFTANLNEMQLNIVSNIITDIKYSGNNKKIFKILYLLSFFNDYNDIVNVILSASSKSIVDRVIKVIELDISKNWKLGDVSSSMFMSDSCLRKQLNKENLTFKKIMLDIKMKHASLFLRTTDKNIDEISCLVGFNSTSYFIKVFKEYYNTTPKKYNGVYSITQGTLP
notes: 274 residues; pMalC2xa derivative; also called BfpT; MBP-PerA chimera; source: expressed from pMALT2; over-expressed in EPEC E2348/69 ΔperA with 0.3 mM IPTG, in soluble lysate, for the co-purification
  binding result: binds
